B1: Fumarate hydratase, mitochondrial (Homo sapiens), P07954 (parent)
chain: MYRALRLLARSRPLVRAPAAALASAPGLGGAAVPSFWPPNAARMASQNSFRIEYDTFGELKVPNDKYYGAQTVRSTMNFKIGGVTERMPTPVIKAFGILKRAAAEVNQDYGLDPKIANAIMKAADEVAEGKLNDHFPLVVWQTGSGTQTNMNVNEVISNRAIEMLGGELGSKIPVHPNDHVNKSQSSNDTFPTAMHIAAAIEVHEVLLPGLQKLHDALDAKSKEFAQIIKIGRTHTQDAVPLTLGQEFSGYVQQVKYAMTRIKAAMPRIYELAAGGTAVGTGLNTRIGFAEKVAAKVAALTGLPFVTAPNKFEALAAHDALVELSGAMNTTACSLMKIANDIRFLGSGPRSGLGELILPENEPGSSIMPGKVNPTQCEAMTMVAAQVMGNHVAVTVGGSNGHFELNVFKPMMIKNVLHSARLLGDASVSFTENCVVGIQANTERINKLMNESLMLVTALNPHIGYDKAAKIAKTAHKNGSTLKETAIELGYLTAEQFDEWVKPKDMLGPK

Variants of: B1
Details: with h2az_human H2AZ1, P0C0S5
Sequence of h2az_human H2AZ1, P0C0S5 (P0C0S5 whole entry): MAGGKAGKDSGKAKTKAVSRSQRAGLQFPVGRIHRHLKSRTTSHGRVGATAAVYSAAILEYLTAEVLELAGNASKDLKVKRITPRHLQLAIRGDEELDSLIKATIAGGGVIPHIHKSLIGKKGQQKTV

Row | Variant | effect of a mutation on the interaction
1 | MYRALRLLARSRPLVRAPAAALASAPGLGGAAVPSFWPPNAARMASQNSFRIEYDTFGELKVPNDKYYGAQTVRSTMNFKIGGVTERMPTPVIKAFGILKRAAAEVNQDYGLDPKIANAIMKAADEVAEGKLNDHFPLVVWQTGSGTQTNMNVNEVISNRAIEMLGGELGSKIPVHPNDHVNKSQSSNDTFPTAMHIAAAIEVHEVLLPGLQKLHDALDAKSKEFAQIIKIGRTHDQDAVPLTLGQEFSGYVQQVKYAMTRIKAAMPRIYELAAGGTAVGTGLNTRIGFAEKVAAKVAALTGLPFVTAPNKFEALAAHDALVELSGAMNTTACSLMKIANDIRFLGSGPRSGLGELILPENEPGSSIMPGKVNPTQCEAMTMVAAQVMGNHVAVTVGGSNGHFELNVFKPMMIKNVLHSARLLGDASVSFTENCVVGIQANTERINKLMNESLMLVTALNPHIGYDKAAKIAKTAHKNGSTLKETAIELGYLTAEQFDEWVKPKDMLGPK [T236D] | increasing interaction strength
2 | MYRALRLLARSRPLVRAPAAALASAPGLGGAAVPSFWPPNAARMASQNSFRIEYDTFGELKVPNDKYYGAQTVRSTMNFKIGGVTERMPTPVIKAFGILKRAAAEVNQDYGLDPKIANAIMKAADEVAEGKLNDHFPLVVWQTGSGTQTNMNVNEVISNRAIEMLGGELGSKIPVHPNDHVNKSQSSNDTFPTAMHIAAAIEVHEVLLPGLQKLHDALDAKSKEFAQIIKIGRTHAQDAVPLTLGQEFSGYVQQVKYAMTRIKAAMPRIYELAAGGTAVGTGLNTRIGFAEKVAAKVAALTGLPFVTAPNKFEALAAHDALVELSGAMNTTACSLMKIANDIRFLGSGPRSGLGELILPENEPGSSIMPGKVNPTQCEAMTMVAAQVMGNHVAVTVGGSNGHFELNVFKPMMIKNVLHSARLLGDASVSFTENCVVGIQANTERINKLMNESLMLVTALNPHIGYDKAAKIAKTAHKNGSTLKETAIELGYLTAEQFDEWVKPKDMLGPK [T236A] | disrupting interaction strength

Variants of: B1
Details: with h2az_human H2AZ1, P0C0S5
Remark: another data set of the same source

Row | Variant | effect of a mutation on the interaction
3 | MYRALRLLARSRPLVRAPAAALASAPGLGGAAVPSFWPPNAARMASQNSFRIEYDTFGELKVPNDKYYGAQTVRSTMNFKIGGVTERMPTPVIKAFGILKRAAAEVNQDYGLDPKIANAIMKAADEVAEGKLNDHFPLVVWQTGSGTQTNMNVNEVISNRAIEMLGGELGSKIPVHPNDHVNKSQSSNDTFPTAMHIAAAIEVHEVLLPGLQKLHDALDAKSKEFAQIIKIGRTHAQDAVPLTLGQEFSGYVQQVKYAMTRIKAAMPRIYELAAGGTAVGTGLNTRIGFAEKVAAKVAALTGLPFVTAPNKFEALAAHDALVELSGAMNTTACSLMKIANDIRFLGSGPRSGLGELILPENEPGSSIMPGKVNPTQCEAMTMVAAQVMGNHVAVTVGGSNGHFELNVFKPMMIKNVLHSARLLGDASVSFTENCVVGIQANTERINKLMNESLMLVTALNPHIGYDKAAKIAKTAHKNGSTLKETAIELGYLTAEQFDEWVKPKDMLGPK [T236A] | decreasing interaction strength

— IntAct's records for PubMed 26237645
